A value given as a limit tells only on which side of the number the result lay.

B7: recombinant human S100A9 (ligand)
chain: MTCKMSQLERNIETIINTFHQYSVKLGHPDTLNQGEFKELVRKDLQNFLKKENKNEKVIEHIMEDLDTNADKQLSFEEFIMLMARLTWASHEKMHEGDEGPGHHHKPGLGEGTP
notes: Concentrations are based on the homodimeric molecular weight; Assays were run with Ca2+ and Zn2+; also called hS100A9; rhS100A9

The target in assay [1] is T1, recombinant human RAGE/Fc chimera (R&D Systems cat. No. 1145-RG) (human, UniProt Q15109 23-344).
T1 construct: Disulfide-linked homodimer expressed in NS0 cells, glycosylated and amine-coupled to a CM5 chip; also called rhRAGE-Fc; immobilized RAGE; not shown: peptide linker between RAGE and Fc; Fc region of human IgG1
T1 sequence (Q15109 23-344, change not shown): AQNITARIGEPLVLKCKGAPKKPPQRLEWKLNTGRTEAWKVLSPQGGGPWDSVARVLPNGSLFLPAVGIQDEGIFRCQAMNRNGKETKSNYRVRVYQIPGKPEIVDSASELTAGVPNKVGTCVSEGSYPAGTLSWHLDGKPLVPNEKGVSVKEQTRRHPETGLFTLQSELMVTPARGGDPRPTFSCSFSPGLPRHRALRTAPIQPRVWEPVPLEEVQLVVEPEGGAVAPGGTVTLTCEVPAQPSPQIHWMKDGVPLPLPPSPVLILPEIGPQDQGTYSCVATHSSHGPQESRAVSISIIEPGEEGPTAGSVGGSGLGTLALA
Briefly: SPR (Biacore), 200 nM protein over amine-coupled RAGE/Fc, 1 mM CaCl2 and 10 µM ZnCl2. Here is the method: (§1) Binding analysis was performed using the “surface plasmon resonance” (SPR) technology with a Biacore 3000™ system. This technology allows analysis of an interaction between proteins and small molecules in a real-time and label-free manner. A protein or low-molecular weight compound is injected over a surface (a CM5 sensor chip) with a covalently coupled ligand and the signal produced, expressed as resonance units (RU), is directly proportional to the number and mass of the molecule interacting with the ligand on the surface. Immobilization, regeneration scouting, surface performance tests and binding studies were conducted basically according to the instructions by the manufacturer. Kinetic evaluation of binding data was carried using the BIAevaluation Software Version 3.2 (Biacore AB). Optimization of conditions for immobilization and binding analysis is carried out for each interaction to be studied.
(§2) Recombinant human RAGE was obtained from R&D Systems (cat. No. 1145-RG) as a fusion protein of the extracellular domain of RAGE, comprising a.a. 1-344, and the Fc region of human IgG₁ via a peptide linker. The chimeric protein was expressed in the mouse myleoma cell line NSO as a disulfide-linked homo-dimeric protein with a calculated molecular mass of 61 kDa. Prior to covalent coupling to the sensor chip, buffer was changed to a standard Biacore buffer (10 mM Hepes, 0.15 M NaCl, pH 7.4, containing 0.005% v/v Surfactant P20; HBS-P) using Fast Protein Desalting Micro-Spin Columns (Pierce). RAGE was diluted in an immobilization buffer shown to give sufficient pre-concentration and then covalently coupled using the “Aim at immobilization level” function in the Biacore Wizard to obtain various coupling densities. Activity of immobilized RAGE was tested by injecting a specific anti-human RAGE monoclonal antibody over the surface.
For orientation: Surface plasmon resonance follows binding to a sensor surface in real time, without labels.

Assay [2] addresses B7. Briefly: SPR competition: 100 nM S100A9 pre-incubated with 12.5-500 nM 43/8, injected over immobilized RAGE-Fc; log-logit plot. Here is the method:
(§3) Binding data were transformed to a log-logit plot for calculation of IC₅₀ value.
The assay was performed by coating human RAGE on a standard CM5 chip at high density (3000 RU) using standard amine coupling.

In assay [3] the target is B7. Briefly: SPR competition: 100 nM S100A9 pre-incubated with 12.5-500 nM 43/8, injected over immobilized TLR4/MD-2; log-logit plot. The protocol: as §3
The assay was performed by coating human TLR4/MD-2 complex on a CM5 chip at a density of ˜3000 RU using standard amine coupling.

For assay [4], the target named is B7. Briefly: SPR competition: 100 nM human S100A9 pre-incubated with 0-400 nM 43/8 or 1C10, injected over immobilized 43/8; reference 1C10. The protocol: Incubated samples were then injected for 3 min at a flow rate of 30 μl/min (1; association phase) followed by injection of sample buffer (2; dissociation phase). Responses were calculated at late association phase.

For assay [5], the target named is B7. Briefly: SPR competition: 100 nM S100A9 pre-incubated with 12.5-500 nM 43/8, injected over immobilized amino-linked Compound A (a small molecule); log-logit plot. Here is the method: The assay was performed by coating amino-linked Compound A on a CM5 chip using standard amine coupling.
Assay [6] concerns the target T1, recombinant human RAGE/Fc chimera (R&D …). Briefly: SPR (Biacore), 200 nM protein over amine-coupled RAGE/Fc, 1 mM CaCl2 and 10 µM ZnCl2; Req or response at late association, not corrected for mass. Here is the method:
as §1, §2

For assay [7] the target is unchanged. Briefly: placeholder.

B1: S100B (other, human, UniProt P04271 1-92, looked up)
chain: MSELEKAMVALIDVFHQYSGREGDKHKLKKSELKELINNELSHFLEEIKEQEVVDKVMETLDNDGDGECDFQEFMAFVAMVTTACHEFFEHE
notes: also called S100β; recombinant human S100β
As for B1, in assay [1], the binding result is on record as “no binding (tested: 200 nM)”.

B2: anti-S100A9 monoclonal antibody 43/8 (antibody, V domains shown)
VH: PELVKSGASVKISCKASGYSFTDYNINWVKQSNGKSLEWIGLINPNYGTTFYNQKFKGKATLTVDQSSSTAYMQLNSLTSEDSAVYYCARETLLLRYFDYWGQGTTLTVSS
VL: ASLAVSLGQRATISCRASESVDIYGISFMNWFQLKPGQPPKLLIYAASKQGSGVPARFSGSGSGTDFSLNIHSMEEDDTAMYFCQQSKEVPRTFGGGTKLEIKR
notes: Mouse monoclonal from an S100A9-null C57BL/6 mouse; also called anti-S100A9 mAb 43/8; mAb 43/8
In general, IC50 refers to the concentration that gives 50% inhibition. Turning to B2, the figures for the half-maximal inhibitory concentration (IC50) in the assay with recombinant human S100A9 [2], with recombinant human S100A9 [3] and with recombinant human S100A9 [5] were 34 nM, 27 nM and 120 nM, respectively. Moreover, the “fold higher inhibition of S100A9 binding to immobilized 43/8 than for antibody 1C10” value with recombinant human S100A9 [4] was above 10 fold.

B3: S100A1 (other, human, UniProt P23297 1-94, looked up)
chain: MGSELETAMETLINVFHAHSGKEGDKYKLSKKELKELLQTELSGFLDAQKDVDAVDKVMKELDENGDGEVDFQEYVVLVAALTVACNNFFWENS
notes: also called recombinant human S100A1
Turning to B3, in assay [1], the binding result is “no binding (tested: 200 nM)”.

B4: hS100A11 (other, human, UniProt P31949 1-105, looked up)
S100A11: MAKISSPTETERCIESLIAVFQKYAGKDGYNYTLSKTEFLSFMNTELAAFTKNQKDPGVLDRMMKKLDTNSDGQLDFSEFLNLIGGLAMACHDSFLKAVPSQKRT
notes: recombinant; also called recombinant human S100A11 (ProSpec TechnoGene)
For B4, the binding result in assay [1] is on record as “no binding (tested: 200 nM)”.

B5: human S100A8/S100A9 complex (other)
chain 1: MLTELEKALNSIIDVYHKYSLIKGNFHAVYRDDLKKLLETECPQYIRKKGADVWFKELDINTDGAVNFQEFLILVIKMGVAAHKKSHEESHKE
chain 2: MTCKMSQLERNIETIINTFHQYSVKLGHPDTLNQGEFKELVRKDLQNFLKKENKNEKVIEHIMEDLDTNADKQLSFEEFIMLMARLTWASHEKMHEGDEGPGHHHKPGLGEGTP
notes: Heterodimer; also called S100A8/A9; S100A8/9
For the molecule B5, the binding result in assay [6] is “binds”.

B6: human S100A8 (other, UniProt P05109 1-93, looked up)
chain: MLTELEKALNSIIDVYHKYSLIKGNFHAVYRDDLKKLLETECPQYIRKKGADVWFKELDINTDGAVNFQEFLILVIKMGVAAHKKSHEESHKE
notes: The source is 'produced recombinantly ... or obtained from elsewhere'
With B6, in assay [1], the binding result was “no binding (tested: 200 nM)”.

In the case of B7, in assay [7], the “fold higher binding than the next group of RAGE binders (AnxII, S100A12, S100A8/9)” value is 10 fold.

B8: murine S100A8/S100A9 complex (other)
chain 1: PSELEKALSNLIDVYHNYSNIQGNHHALYKNDFKKMVTTECPQFVQNINIENLFRELDINSDNAINFEEFLAMVIKVGVASHKDSHKE
chain 2: ANKAPSQMERSITTIIDTFHQYSRKEGHPDTLSKKEFRQMVEAQLATFMKKEKRNEALINDIMEDLDTNQDNQLSFEECMMLMAKLIFACHEKLHENNPRGHGHSHGKGCGK
notes: Heterodimer; also called murine S100A8/A9; murine complex S100A8/A9
In the case of B8, in assay [6], the binding result is listed as “binds”.

B9: murine S100A9 (other, UniProt P31725 2-113, looked up)
chain: ANKAPSQMERSITTIIDTFHQYSRKEGHPDTLSKKEFRQMVEAQLATFMKKEKRNEALINDIMEDLDTNQDNQLSFEECMMLMAKLIFACHEKLHENNPRGHGHSHGKGCGK
notes: Concentration is based on the homodimeric molecular weight
Consider B9, for which the binding result in assay [1] was “no binding (tested: 200 nM)”.

B10: murine S100A8 (other, UniProt P27005 2-89, looked up)
chain: PSELEKALSNLIDVYHNYSNIQGNHHALYKNDFKKMVTTECPQFVQNINIENLFRELDINSDNAINFEEFLAMVIKVGVASHKDSHKE
notes: as for B9
For B10, the binding result in assay [1] is on record as “no binding (tested: 200 nM)”.

B11: human S100A12 (other, UniProt P80511 2-92, looked up)
chain: TKLEEHLEGIVNIFHQYSVRKGHFDTLSKGELKQLLTKELANTIKNIKDKAVIDEIFQGLDANQDEQVDFQEFISLVAIALKAAHYHTHKE
notes: also called S100Al2
Take B11: in assay [6], the binding result is recorded as “binds”.

Source of the values: patent US20100166775A1 (ACTIVE BIOTECH, published 2010).
